Paper PMC4497479, “Molecular characterization of an MYB transcription factor from a succulent halophyte involved in stress tolerance”

Molecular target: SbMYB44 (Salicornia brachiata, UniProt X2J380 1-269)
Test: EMSA; 15 mM HEPES, 35 mM KCl, 4 mM EDTA (pH 8.0), 1 mM DTT, 1 mM MgCl2, 6% glycerol, room temperature 20 min; 80 ng probe, 40 ug protein in Methods (ng in Results/Fig. 5); SYBR Green stain
Conditions: protein: recombinant; tags: 6xHis (pET28a, EcoRI/XhoI); blunt

Sequence of SbMYB44 (X2J380 entry or part of it): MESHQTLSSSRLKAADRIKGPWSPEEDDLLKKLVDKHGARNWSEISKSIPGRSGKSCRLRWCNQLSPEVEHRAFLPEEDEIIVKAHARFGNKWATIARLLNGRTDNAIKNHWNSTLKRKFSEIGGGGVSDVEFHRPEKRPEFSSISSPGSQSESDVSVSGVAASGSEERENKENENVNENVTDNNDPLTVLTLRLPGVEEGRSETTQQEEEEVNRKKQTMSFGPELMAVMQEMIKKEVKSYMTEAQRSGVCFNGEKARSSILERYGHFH

B1: MBS-1 (dsDNA)
DNA 1: CGAGACACCCTAACTGACACACATTCT
DNA 2: AGAATGTGTGTCAGTTAGGGTGTCTCG
B1: binds.

B2: RD22 (dsDNA)
DNA 1: CTTCTAACCACTACGTGCCTTCTGCTCCTTCTGC
DNA 2: GCAGAAGGAGCAGAAGGCACGTAGTGGTTAGAAG
B2: binds.

B3: RD29a DRE (dsDNA)
DNA 1: TAAAAGATATACTACCGACATGAGTTCCAAAAAGC
DNA 2: GCTTTTTGGAACTCATGTCGGTAGTATATCTTTTA
B3: no binding.
